Source: patent publication US20110045046A1
Where no end group is shown, it is not given here. Side-chain parts run from the residue outwards.

T1: H-2K^b class I MHC molecule (mouse)
T1 chain 1: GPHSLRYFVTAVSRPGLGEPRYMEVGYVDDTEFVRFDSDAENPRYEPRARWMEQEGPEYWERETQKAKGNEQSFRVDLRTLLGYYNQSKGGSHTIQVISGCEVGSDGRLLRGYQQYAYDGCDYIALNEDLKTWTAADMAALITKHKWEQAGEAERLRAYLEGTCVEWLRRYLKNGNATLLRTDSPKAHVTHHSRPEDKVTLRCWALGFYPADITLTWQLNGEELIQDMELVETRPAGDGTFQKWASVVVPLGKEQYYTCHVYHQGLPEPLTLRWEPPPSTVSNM
T1 chain 2: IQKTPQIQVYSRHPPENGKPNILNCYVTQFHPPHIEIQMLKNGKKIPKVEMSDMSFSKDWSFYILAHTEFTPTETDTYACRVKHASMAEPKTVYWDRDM


Tests used:
HLA-A*0206 (human) = assay: MHC binding assay with purified MHC molecules
HLA-A*0201 (human) [1] = assay: MHC binding assay with purified MHC molecules
HLA-A*0203 (human) [2] = assay: MHC binding assay with purified MHC molecules
HLA-A*0202 (human) = assay: MHC binding assay with purified MHC molecules
HLA-A*0201 (human) [3] = assay: inhibition of binding of a radioiodinated peptide to the MHC molecule (50% inhibition; column headed KD)
HLA-A*0203 (human) [4] = assay: as above
[5] = target: T1, H-2K^b class I MHC molecule (mouse); assay: K^b binding capacity

| Binder | IC50 (HLA-A*0206 (human)) [nM] | IC50 (HLA-A*0201 (human) [1]) [nM] | IC50 (HLA-A*0203 (human) [2]) [nM] | IC50 (HLA-A*0202 (human)) [nM] | also measured |
| --- | --- | --- | --- | --- | --- |
| TLTSCNTSV (modifications not checked) [TLT(GalNAc-O-S)CNTSV] | 24 | 0.72 | 8.2 | 15 | – |
| TLTSCNTSV (modifications not checked) | 15 | 0.29 | 13 | 8.1 | – |
| LLLLTVLTV (modifications not checked) [LLLL(Tn-T)LTV] | – | – | – | – | Kd (HLA-A*0201 (human) [3]): 1300 nM; Kd (HLA-A*0203 (human) [4]): 4290 nM |
| ALASAAAAV (modifications not checked) | 266 | – | – | – | – |
| ALASAAAAV (modifications not checked) [ALA(GALNAc-O-S)SAAAAV] | 81 | – | – | – | – |
| AIIAS([GalNAc-Gal])FAAL [AIIA(β-Gal-[1->3]-α-GalNAc-O-serine)FAAL] | – | – | – | – | IC50 [5]: 7 nM |
